In patent US20180163180A1, “METHOD OF ENHANCING SOMATIC CELL REPROGRAMMING WITH THE ACETYLLYSINE READER BRD3R” (THE UAB RESEARCH FOUNDATION, INC ., priority 2015, published 2018):

Legend:
[1] = biological target: T1, biacetylated H3 (H3K9/14Ac) (Homo sapiens, UniProt P68431); test: Histone peptide pull-down assay; type: binding; conditions: lysates of human fibroblasts overexpressing the protein
T1 construct: Histone tails used for peptide pull-down experiments; expressed in transfected cells; host or cells: human BJ fibroblasts transduced with BRD3R lentivirus (lysate)
Experimental: (§1) • Histone peptide pull-down assay: H3 or H4 histone tails with 8 different acetylation modifications were evaluated for binding with BRD3R and BRD3. One unmodified tail for each histone was used for negative control.
(§2) Human BJ fibroblasts were transduced with BRD3 or BRD3R viruses. Three days post-transduction, cells were lysed by non-denaturing lysis buffer (20 mM HEPES pH 7.9, 150 mM NaCl, 1 mM MgCl2, 0.5% NP40, 10 mM NaF, 0.2 mM NaVO4, 10 mM β-glycerol phosphate, 5% glycerol, 1 mM DTT, 1 mM PMSF and protease inhibitors). Twenty μg of the cell lysates were incubated with 1 μg biotinylated peptide in 300 μl binding buffer (50 mM Tris pH 7.5, 150 mM NaCl, 0.1% NP-40, 1 mM PMSF and protease inhibitors) at 4° C. for overnight. The next day, 30 μl of Dynabeads M-280 Streptavidin was added into each sample (Invitrogen, 11205D). The mixture of proteins, antibodies and beads were further incubated with gentle rotation at 4° C. for 1 h. The beads were then washed with binding buffer three times. The bound proteins were resuspended in 60 μl of 2× SDS sample buffer. The pull-down proteins were analyzed by western using antibody of BRD3 (Proteintech, 11859-1-AP). Two micrograms of cell lysates were loaded as input control. For semi-quantification, band density was normalized to the corresponding inputs.

H4K5Ac = biological target: T2, H4K5Ac (Homo sapiens, UniProt P62805); test: Histone peptide pull-down assay; type: binding; conditions: lysates of human fibroblasts overexpressing the protein
T2 construct: Histone tails used for peptide pull-down experiments; Peg-biotin (chemical label); expressed in transfected cells; host or cells: human BJ fibroblasts transduced with BRD3R lentivirus (lysate)
Experimental: as §1, §2

[2] = biological target: T3, tetra-acetylated H4 (H4K5/8/12/16Ac) (Homo sapiens, UniProt P62805); test: Histone peptide pull-down assay; type: binding; conditions: lysates of human fibroblasts overexpressing BRD3R or BRD3; western with BRD3 antibody
T3 construct: Histone tails used for peptide pull-down experiments; Peg-biotin (chemical label); incubated with lysate of human BJ fibroblasts transduced with BRD3R or BRD3 virus
Experimental: as §1, §2

H3K14Ac = biological target: T4, H3K14Ac (Homo sapiens, UniProt P68431); test: Histone peptide pull-down assay; type: binding; conditions: lysates of human fibroblasts overexpressing the protein
T4 construct: Histone tails used for peptide pull-down experiments; expressed in transfected cells; host or cells: human BJ fibroblasts transduced with BRD3R lentivirus (lysate)
Experimental: as §1, §2

H3K9Ac = biological target: T5, H3K9Ac (Homo sapiens, UniProt P68431); test: Histone peptide pull-down assay; type: binding; conditions: lysates of human fibroblasts overexpressing the protein
T5 construct: Histone tails used for peptide pull-down experiments; expressed in transfected cells; host or cells: human BJ fibroblasts transduced with BRD3R lentivirus (lysate)
Experimental: as §1, §2

BJ cells = test: Reprogramming of human fibroblasts scored by TRA-1-60+ colonies/clusters; type: cell-based
Experimental: Briefly (FIG. 1A), 2×10^4 of BJ cells were seeded in each well of a 24-well plates. The second day, fibroblasts were transduced with OCT4 (10 MOI), SOX2 (5 MOI), KLF4 (5 MOI) along with 250 μl of individual kinase viral supernatant freshly packaged in one well of a 6-well plate. Twenty-two cDNAs were evaluated in one 24-well plate. One well is OSK control, and one well of cells is transduced with OSK plus 250 μl of GFP viral supernatant as a second control. Virus was removed next day with fresh fibroblast medium. Forty-eight hours after transduction, fibroblasts were transferred from one well into a 60-mm dish for continued reprogramming. The next day of re-seeding, fibroblast medium was replaced with E7 medium (E8 minus TGF beta) plus 100 μM of sodium butyrate. From day 18 of reprogramming on, E8 media was used. On day 25 of reprogramming, reprogramming dishes were stained for ALP or TRA-1-60 markers.
• Concentration of virus: The reprogramming viruses (OCT4, SOX2, KLF4, MYC and BET members) were concentrated before use except for library viruses. The lentiviral supernatant was centrifuged at 3,000×g for 10 mins at 4° C. to remove the cell debris. Thirty ml of the viral supernatant was then transferred into each 50-ml tube. 7 ml of 50% PEG-6000 stock solution (final concentration of 8.5%) and 4.1 ml of 4 M NaCl stock solution was added to each tube (final concentration of 0.4 M). The virus mixture was stored at 4° C. for 3-5 h.
• Cell culture and reprogramming: Human fibroblast cells (BJ ATCC CRL-2522®) were cultured in fibroblast medium: DMEM, 10% heat-inactivated FBS, 0.1 mM 2-mercaptoethanol, 100 U/ml penicillin, 100 μg/ml streptomycin, 0.1 mM MEM NEAA and 4 ng/ml human bFGF. For reprogramming, seed BJ cells into 24-well plate at 2×10^4 cells/well. Twenty-four hours after plating, pre-mix the OSK (OCT4, 10 MOI; SOX2, 5 MOI and KLF4, 5 MOI) viruses (shown in FIGS. 6B-6D, SEQ ID NO: 58-60, respectively), and add the OSK virus along with 250 μl supernatant of individual kinase virus into respective wells. Incubate overnight. Next morning, remove viruses by replacing virus-containing medium with fresh fibroblast medium. Twenty-four hours after transduction, the cells were re-seeded from one well into one matrigel-coated 60-mm dish. Next day, replace fibroblast medium with reprogramming media (E7 plus sodium butyrate at 100 μM). On 18 day, start to use E8 media. On day 25 of reprogramming, stain the reprogramming cells for alkaline phosphatase or TRA-1-60.

reprogramming cells = test: Senescence analysis (SA-β-galactosidase staining) of reprogramming cells; type: cell-based, human; conditions: early stages of reprogramming (day 5)
Source text: • Senescence analysis: Prepare reprogramming cells as stated in the reprogramming section. At day 5 of reprogramming, stain cells for endogenous p-galactosidase using the Cell Senescence Kit (Cell Signaling Technology, #9860s) per manufacturer's instruction. Count the β-galactosidase^+ cells in 10 randomly selected fields in each treated groups. The total cells were counted based on DAPI staining.

Human fibroblasts = test: CyQUANT cell proliferation assay of reprogramming cells; type: cell-based; conditions: before day 9 of reprogramming
Experimental: • Cell proliferation assays: Human fibroblasts were transduced with reprogramming viruses. Forty-eight hs post transduction, the reprogramming cells were plated at 4,000 cells/well of a 96-well plate. Five replicates were performed for each condition. On days 0, 1, 3, 5, 7, 9, 11 and 13, the cells were measured using a CyQUANT® NF Cell Proliferation Assay Kit (Life Technologies; c35007) per manufacturer's instruction.

Substance: BRD3R: BRD3 with Reprogramming activity; 556 aa isoform of human BRD3 (AAH32124, SEQ ID NO: 47), encoded by cDNA L61
- binding to H3K9/14Ac peptide [1]: bound very weakly
- binding to H4K5Ac peptide (H4K5Ac): weakly
- binding to H4K5/8/12/16Ac peptide [2]: bound strongly
- binding to H3K14Ac peptide (H3K14Ac): bound
- binding to H3K9Ac peptide (H3K9Ac): bound
- appearance of abundant TRA-1-60+ clusters (BJ cells; combined with 3F (OCT4, SOX2, KLF4), controls infrequent before day 10): 6 days
- reprogramming activity (TRA-1-60+ colonies) (BJ cells; used with 3F in BJ cells, compared to OSK-GFP control): more TRA-1-60^+ colonies
- cell senescence (SA-β-galactosidase staining) (reprogramming cells): Reduced cell senescence
- overall proliferation rate vs control cells (Human fibroblasts): comparable overall proliferation rates
